Results reported in patent US8715959B2, “Substitution mutant receptors and their use in a nuclear receptor-based inducible gene expression system” (priority 2001, dated 2014).

B1: V96D: CfEcR-DEF LBD substitution mutant, Valine (V) to Aspartic Acid (D) (protein, listed as Choristoneura fumiferana)
chain: LTANQQFLIARLIWYQDGYEQPSDEDLKRITQTWQQADDENEESDTPFRQITEMTILTVQLIVEFAKGLPGFAKISQPDQITLLKACSSEVMMLRDARRYDAASDSVLFANNQAYTRDNYRKAGMAYVIEDLLHFCRCMYSMALDNIHYALLTAVVIFSDRPGLEQPQLVEEIQRYYLNTLRIYILNQLSGSARSSVIYGKILSILSELRTLGMQNSNMCISLKLKNRKLPPFLEEIWDV
B2: F109A: CfEcR-DEF LBD substitution mutant, Phenylalanine (F) to Alanine (A) (protein, listed as Choristoneura fumiferana)
chain: LTANQQFLIARLIWYQDGYEQPSDEDLKRITQTWQQADDENEESDTPFRQITEMTILTVQLIVEFAKGLPGFAKISQPDQITLLKACSSEVMMLRVARRYDAASDSVLAANNQAYTRDNYRKAGMAYVIEDLLHFCRCMYSMALDNIHYALLTAVVIFSDRPGLEQPQLVEEIQRYYLNTLRIYILNQLSGSARSSVIYGKILSILSELRTLGMQNSNMCISLKLKNRKLPPFLEEIWDV
B3: R95A: CfEcR-DEF LBD substitution mutant, Arginine (R) to Alanine (A) (protein, listed as Choristoneura fumiferana)
chain: LTANQQFLIARLIWYQDGYEQPSDEDLKRITQTWQQADDENEESDTPFRQITEMTILTVQLIVEFAKGLPGFAKISQPDQITLLKACSSEVMMLAVARRYDAASDSVLFANNQAYTRDNYRKAGMAYVIEDLLHFCRCMYSMALDNIHYALLTAVVIFSDRPGLEQPQLVEEIQRYYLNTLRIYILNQLSGSARSSVIYGKILSILSELRTLGMQNSNMCISLKLKNRKLPPFLEEIWDV
B4: M92A: CfEcR-DEF LBD substitution mutant, Methionine (M) to Alanine (A) (protein, listed as Choristoneura fumiferana)
chain: LTANQQFLIARLIWYQDGYEQPSDEDLKRITQTWQQADDENEESDTPFRQITEMTILTVQLIVEFAKGLPGFAKISQPDQITLLKACSSEVAMLRVARRYDAASDSVLFANNQAYTRDNYRKAGMAYVIEDLLHFCRCMYSMALDNIHYALLTAVVIFSDRPGLEQPQLVEEIQRYYLNTLRIYILNQLSGSARSSVIYGKILSILSELRTLGMQNSNMCISLKLKNRKLPPFLEEIWDV
B5: Y120A: CfEcR-DEF LBD substitution mutant, Tyrosine (Y) to Alanine (A) (protein, listed as Choristoneura fumiferana)
chain: LTANQQFLIARLIWYQDGYEQPSDEDLKRITQTWQQADDENEESDTPFRQITEMTILTVQLIVEFAKGLPGFAKISQPDQITLLKACSSEVMMLRVARRYDAASDSVLFANNQAYTRDNARKAGMAYVIEDLLHFCRCMYSMALDNIHYALLTAVVIFSDRPGLEQPQLVEEIQRYYLNTLRIYILNQLSGSARSSVIYGKILSILSELRTLGMQNSNMCISLKLKNRKLPPFLEEIWDV
B6: M125A: CfEcR-DEF LBD substitution mutant, Methionine (M) to Alanine (A) (protein, listed as Choristoneura fumiferana)
chain: LTANQQFLIARLIWYQDGYEQPSDEDLKRITQTWQQADDENEESDTPFRQITEMTILTVQLIVEFAKGLPGFAKISQPDQITLLKACSSEVMMLRVARRYDAASDSVLFANNQAYTRDNYRKAGAAYVIEDLLHFCRCMYSMALDNIHYALLTAVVIFSDRPGLEQPQLVEEIQRYYLNTLRIYILNQLSGSARSSVIYGKILSILSELRTLGMQNSNMCISLKLKNRKLPPFLEEIWDV
B7: V59A: CfEcR-DEF LBD substitution mutant, Valine (V) to Alanine (A) (protein, listed as Choristoneura fumiferana)
chain: LTANQQFLIARLIWYQDGYEQPSDEDLKRITQTWQQADDENEESDTPFRQITEMTILTAQLIVEFAKGLPGFAKISQPDQITLLKACSSEVMMLRVARRYDAASDSVLFANNQAYTRDNYRKAGMAYVIEDLLHFCRCMYSMALDNIHYALLTAVVIFSDRPGLEQPQLVEEIQRYYLNTLRIYILNQLSGSARSSVIYGKILSILSELRTLGMQNSNMCISLKLKNRKLPPFLEEIWDV
B8: L223A: CfEcR-DEF LBD substitution mutant, Leucine (L) to Alanine (A) (protein, listed as Choristoneura fumiferana)
chain: LTANQQFLIARLIWYQDGYEQPSDEDLKRITQTWQQADDENEESDTPFRQITEMTILTVQLIVEFAKGLPGFAKISQPDQITLLKACSSEVMMLRVARRYDAASDSVLFANNQAYTRDNYRKAGMAYVIEDLLHFCRCMYSMALDNIHYALLTAVVIFSDRPGLEQPQLVEEIQRYYLNTLRIYILNQLSGSARSSVIYGKILSILSELRTLGMQNSNMCISAKLKNRKLPPFLEEIWDV
B9: A123F: CfEcR-DEF LBD substitution mutant, Alanine (A) to Phenylalanine (F) (protein, listed as Choristoneura fumiferana)
chain: LTANQQFLIARLIWYQDGYEQPSDEDLKRITQTWQQADDENEESDTPFRQITEMTILTVQLIVEFAKGLPGFAKISQPDQITLLKACSSEVMMLRVARRYDAASDSVLFANNQAYTRDNYRKFGMAYVIEDLLHFCRCMYSMALDNIHYALLTAVVIFSDRPGLEQPQLVEEIQRYYLNTLRIYILNQLSGSARSSVIYGKILSILSELRTLGMQNSNMCISLKLKNRKLPPFLEEIWDV
B10: M93A: CfEcR-DEF LBD substitution mutant, Methionine (M) to Alanine (A) (protein, listed as Choristoneura fumiferana)
chain: LTANQQFLIARLIWYQDGYEQPSDEDLKRITQTWQQADDENEESDTPFRQITEMTILTVQLIVEFAKGLPGFAKISQPDQITLLKACSSEVMALRVARRYDAASDSVLFANNQAYTRDNYRKAGMAYVIEDLLHFCRCMYSMALDNIHYALLTAVVIFSDRPGLEQPQLVEEIQRYYLNTLRIYILNQLSGSARSSVIYGKILSILSELRTLGMQNSNMCISLKLKNRKLPPFLEEIWDV
B11: L230A: CfEcR-DEF LBD substitution mutant, Leucine (L) to Alanine (A) (protein, listed as Choristoneura fumiferana)
chain: LTANQQFLIARLIWYQDGYEQPSDEDLKRITQTWQQADDENEESDTPFRQITEMTILTVQLIVEFAKGLPGFAKISQPDQITLLKACSSEVMMLRVARRYDAASDSVLFANNQAYTRDNYRKAGMAYVIEDLLHFCRCMYSMALDNIHYALLTAVVIFSDRPGLEQPQLVEEIQRYYLNTLRIYILNQLSGSARSSVIYGKILSILSELRTLGMQNSNMCISLKLKNRKAPPFLEEIWDV
B12: L234A: CfEcR-DEF LBD substitution mutant, Leucine (L) to Alanine (A) (protein, listed as Choristoneura fumiferana)
chain: LTANQQFLIARLIWYQDGYEQPSDEDLKRITQTWQQADDENEESDTPFRQITEMTILTVQLIVEFAKGLPGFAKISQPDQITLLKACSSEVMMLRVARRYDAASDSVLFANNQAYTRDNYRKAGMAYVIEDLLHFCRCMYSMALDNIHYALLTAVVIFSDRPGLEQPQLVEEIQRYYLNTLRIYILNQLSGSARSSVIYGKILSILSELRTLGMQNSNMCISLKLKNRKLPPFAEEIWDV
B13: E20A: CfEcR-DEF LBD substitution mutant, Glutamic Acid (E) to Alanine (A) (protein, listed as Choristoneura fumiferana)
chain: LTANQQFLIARLIWYQDGYAQPSDEDLKRITQTWQQADDENEESDTPFRQITEMTILTVQLIVEFAKGLPGFAKISQPDQITLLKACSSEVMMLRVARRYDAASDSVLFANNQAYTRDNYRKAGMAYVIEDLLHFCRCMYSMALDNIHYALLTAVVIFSDRPGLEQPQLVEEIQRYYLNTLRIYILNQLSGSARSSVIYGKILSILSELRTLGMQNSNMCISLKLKNRKLPPFLEEIWDV
B14: I62A: CfEcR-DEF LBD substitution mutant, Isoleucine (I) to Alanine (A) (protein, listed as Choristoneura fumiferana)
chain: LTANQQFLIARLIWYQDGYEQPSDEDLKRITQTWQQADDENEESDTPFRQITEMTILTVQLAVEFAKGLPGFAKISQPDQITLLKACSSEVMMLRVARRYDAASDSVLFANNQAYTRDNYRKAGMAYVIEDLLHFCRCMYSMALDNIHYALLTAVVIFSDRPGLEQPQLVEEIQRYYLNTLRIYILNQLSGSARSSVIYGKILSILSELRTLGMQNSNMCISLKLKNRKLPPFLEEIWDV

System: CfEcR-DEF
Assay: GAL4/mutant CfEcR-DEF + VP16/LmUSP-EF GAL4-driven luciferase reporter transactivation in NIH3T3 cells
Assay type: cell-based, Choristoneura fumiferana
Settings: NIH3T3 cells, relative to Gal4/wild-type CfEcR-DEF switch activity; for Fold increase over WT, 2.5 μM GS™-E: 2.5 μM GS™-E non-steroidal ligand; for Fold increase over WT, 2.5 μM PonA: 2.5 μM PonA steroidal ligand
Method: DNAs corresponding to the various switch constructs outlined in Example 1, specifically switches 1.1-1.13, were transfected into mouse NIH3T3 cells (ATCC) or L57 cells (Dr. Peter Cherbas; Indiana University) as follows. Standard methods for culture and maintenance of the cells were followed. […] Superfect™ (Qiagen Inc.) was used for 3T3 cells and Lipofectamine™ (LifeTechnologies) was used for L57 cells as the transfection reagents. For 12-well plates, 4 μl of Superfect™ or Lipofectamine™ was mixed with 100 μl of growth medium. One μg of reporter construct and 0.25 μg of each receptor construct of the receptor pair to be analyzed were added to the transfection mix. […] The cells were harvested and reporter activity was assayed.
Cells were harvested 40 hours after adding ligands. […] Twenty μl of lysate were assayed.
Briefly, Applicants mutated amino acid residues predicted to be critical for ecdysteroid binding into alanine and created GAL4/mutantCfEcR-DEF cDNA gene expression cassettes as described in Example 1 above using the Quikchange PCR-mediated site-directed mutagenesis kit (Stratagene, La Jolla, Calif.). The mutated and the WT cDNAs were tested in GAL4-driven luciferase reporter assays.
DNAs corresponding to the various switch constructs outlined in Example 1, specifically switches 1.1-1.2, were transfected into mouse NIH3T3 cells (ATCC) as follows. […] Two μl of Superfect™ was mixed with 100 μl of growth medium and 50 ng of either GAL4/wild-type EcR or Gal4/mutant EcR cassette, 50 ng of VP16/LmUSP-EF and 200 ng of pFRLuc were added to the transfection mix. […] The cells were harvested and reporter activity was assayed as described above.

Molecule | Fold increase over WT, 2.5 μM GS™-E | Fold increase over WT, 2.5 μM PonA
B1 | 3.07 fold | 3.1 fold
B2 | 0.22 fold | 0.005 fold
B3 | 0.4 fold | 0.006 fold
B4 | 0.7 fold | 0.39 fold
B5 | 0.001 fold | 0.006 fold
B6 | 0.005 fold | 0.007 fold
B7 | 0.47 fold | 0.002 fold
B8 | 0.118 fold | 0.007 fold
B9 | 0.09 fold | 0.005 fold
B10 | 0.46 fold | 0.07 fold
B11 | 0.001 fold | 0.006 fold
B12 | 0.001 fold | 0.006 fold
B13 | 0.9 fold | 0.35 fold
B14 | 0.12 fold | 0.004 fold
